Earlier results, collected in article PMC13242717.

Target: spike protein (SARS-CoV-2) (UniProt P0DTC2)

## spike protein (from UniProt P0DTC2)
  Kd: 300 nM
